Consider one molecule from patent US20040203128A1 (GENSET S A, published 2004).

This test concerns the target GST protein (negative control, from pGEX2TK) (UniProt P08515 1-218 = GST). Kind of test: solid phase overlay assay, 32P-labeled GST-PPP2R2C probe on blotted protein.

Chain of GST protein (negative control, from pGEX2TK) (P08515 whole entry): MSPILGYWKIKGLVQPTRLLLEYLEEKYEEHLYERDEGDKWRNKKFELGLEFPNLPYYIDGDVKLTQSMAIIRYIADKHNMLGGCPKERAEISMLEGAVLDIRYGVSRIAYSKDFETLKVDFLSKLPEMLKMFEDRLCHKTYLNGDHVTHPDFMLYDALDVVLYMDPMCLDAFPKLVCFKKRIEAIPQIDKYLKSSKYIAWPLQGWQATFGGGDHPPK
Protocol: After 4.5 hr of incubation, the membrane was washed with Hyb75 buffer, 1 mM DTT, 1% (w/v) non-fat dry milk three times for 15 min at room temperature. The blots were analyzed by autoradiography.

B1: GST-PPP2R2C radiolabeled recombinant protein (other)
chain: GEDTDTRKINHSFLRDHSYVTEADIISTVEFNHTGELLATGDKGGRVVIFQREPESKNAPHSQGDYDVYSTFQSHEPEFDYLKSLEIEEKINKIKWLPQQNAAHSLLSTNDKTIKLWKITERDKRPEGYNLKDEEGKLKDLSTVTSLQVPVLKPMDLMVEVSPRRIFANGHTYHINSISVNSDCETYMSADDLRINLWHLAITDRSFNIVDIKPANMEDLTEVITASEFHPHHCNLFVYSSSKGSLRLCDMPAAALCDKHSKLFEEPEDPSNRSFFSEIISSVSDVKFSHSDRYMLTRDYLTVKVWDLNMEARPIETYQVHDYLRSKLCSLYENDCIFDKFECAWNGSDSVIMTGAYNNFFRMFDRNTKRDVTLEASRESSKPRAVLKPRRVCVGGKRRRDDISVDSLDFTKKILHTAWHPAENIIAIAATNNLYIFQDKVNSDMH
modifications: 32P-phosphorylated in vitro with PKA and [32P]-γATP (site not stated)
notes: Insert is nucleotides 55-1540 of AF086924 (the bait construct starts at 52), so the first codon may be missing; also called PP2A/Bγ; protein encoded by pGEX-2TK-PPP2R2C; not shown: glutathione S-transferase encoded by the pGEX-2TK vector (Amersham Pharmacia Biotech)
Consider B1, for which the binding result is “no binding (tested: 100 ng, 10 ng and 0.1 ng of GST loaded)”.
